Target: the molecule itself
Test: SEC

B1: recombinant full-length Candida albicans Ssa2 protein (natural protein)
chain: not shown
binding result: binds

Source: paper PMC2643122 (Molecular Microbiology, 2008)
